In publication PMC3192115, “Analysis of RNA Binding by the Dengue Virus NS5 RNA Capping Enzyme”:
Several values for one entry are separate records, joined by “and”; a condition that tells them apart may be missing. Equal values may be shown once.

Assays:
[1] = target: T1, NS5 capping enzyme WT (West Nile) (West Nile virus) (UniProt Q9Q6P4); assay: fluorescence polarization; details: 5' diphosphate
T1 sequence: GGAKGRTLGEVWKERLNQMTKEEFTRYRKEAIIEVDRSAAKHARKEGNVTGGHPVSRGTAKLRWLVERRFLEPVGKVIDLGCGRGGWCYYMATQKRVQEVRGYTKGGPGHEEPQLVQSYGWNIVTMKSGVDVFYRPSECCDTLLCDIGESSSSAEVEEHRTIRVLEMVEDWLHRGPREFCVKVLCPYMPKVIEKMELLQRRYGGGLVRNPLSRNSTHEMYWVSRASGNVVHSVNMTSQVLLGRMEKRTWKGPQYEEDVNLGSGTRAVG

[2] = target: T2, NS5 N-terminal capping enzyme WT (dengue 2) (Dengue virus type 2, UniProt P29990 2492-2758); assay: fluorescence polarization; details: protein: recombinant; tags: His; label: 3' FAM
T2 sequence (P29990 2492-2758): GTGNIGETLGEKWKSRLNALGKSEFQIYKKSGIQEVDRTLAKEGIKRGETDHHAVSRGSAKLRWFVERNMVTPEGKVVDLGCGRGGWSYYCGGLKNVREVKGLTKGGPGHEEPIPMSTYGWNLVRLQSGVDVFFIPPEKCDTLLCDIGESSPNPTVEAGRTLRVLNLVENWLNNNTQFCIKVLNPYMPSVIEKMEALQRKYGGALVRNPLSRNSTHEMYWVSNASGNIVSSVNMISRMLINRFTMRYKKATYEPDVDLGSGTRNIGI

[3] = target: NS5 capping enzyme WT (yellow fever) (Yellow fever virus, UniProt P03314 2507-2774); assay: fluorescence polarization; details: protein: recombinant; label: 3' FAM
Chain of NS5 capping enzyme WT (yellow fever) (P03314 2507-2774): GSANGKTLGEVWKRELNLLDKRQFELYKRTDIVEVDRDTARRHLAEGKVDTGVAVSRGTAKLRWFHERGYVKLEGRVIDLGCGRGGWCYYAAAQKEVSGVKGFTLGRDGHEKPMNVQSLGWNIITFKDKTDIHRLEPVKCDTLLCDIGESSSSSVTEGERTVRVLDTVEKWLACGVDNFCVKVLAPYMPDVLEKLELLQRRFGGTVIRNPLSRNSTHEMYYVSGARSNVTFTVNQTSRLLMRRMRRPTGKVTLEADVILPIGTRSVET

[4] = target: T2, NS5 N-terminal capping enzyme WT …; assay: fluorescence polarization; Table 1 gives 3.7 uM, SD 217 nM; details: protein: recombinant; tags: His; label: 3' FAM
[5] = target: T2, NS5 N-terminal capping enzyme WT …; assay: fluorescence polarization; mock control for GTP experiment; details: protein: recombinant; tags: His; label: 3' FAM

AGUAA [ppAGUAA-FAM] was tested, and the Kd [1] was 136 nM.

For AGUAA (ssRNA, 5' monophosphate) [pAGUAA-FAM], the Kd [2] was 967 ± 88 nM.

With AGUAA (ssRNA, 5' diphosphate) [ppAGUAA-FAM] the Kd [2] was 187 nM and ~200 nM and the Kd [3] was 420 ± 20 nM.

Work on AGUAA (ssRNA, no 5' phosphate) [AGUAA-FAM] yielded a Kd [4] of 3800 ± 200 nM and a Kd [5] of 3500 nM.
